Laboratory results from patent publication US12679878B2, “CRF2 receptor agonists and their use in therapy” (SANOFI, priority 2020, dated 2026).
Starred links: 1 amine or outer side, 2 acyl side, 3 side chain; linkers in the order of their positions; H or OH if unused. Non-standard residues stand in square brackets, D forms with d. Groups on a side chain read outwards from the residue. No end group written: not given here. *: point of attachment. C18 diacid = O=C(O)CCCCCCCCCCCCCCCCC(=O)*; γGlu = O=C(O)[C@H](CCC(=O)[*:2])N[*:1]; AEEA = NCCOCCOCC(=O)O; Aib = CC(C)(N)C(=O)O

B1: SEQ ID NO: 72 (peptide)
peptide: IVLSLDVPIKLK([AEEA-AEEA-γGlu-C18 diacid])QILLEQERQKKQRQQAETN[Aib]QILAQV-NH2
modifications: N-terminus assumed
SMILES: CC[C@H](C)[C@H](N)C(=O)N[C@H](C(=O)N[C@@H](CC(C)C)C(=O)N[C@@H](CO)C(=O)N[C@@H](CC(C)C)C(=O)N[C@@H](CC(=O)O)C(=O)N[C@H](C(=O)N1CCC[C@H]1C(=O)N[C@H](C(=O)N[C@@H](CCCCN)C(=O)N[C@@H](CC(C)C)C(=O)N[C@@H](CCCCNC(=O)COCCOCCNC(=O)COCCOCCNC(=O)CC[C@H](NC(=O)CCCCCCCCCCCCCCCCC(=O)O)C(=O)O)C(=O)N[C@@H](CCC(N)=O)C(=O)N[C@H](C(=O)N[C@@H](CC(C)C)C(=O)N[C@@H](CC(C)C)C(=O)N[C@@H](CCC(=O)O)C(=O)N[C@@H](CCC(N)=O)C(=O)N[C@@H](CCC(=O)O)C(=O)N[C@@H](CCCNC(=N)N)C(=O)N[C@@H](CCC(N)=O)C(=O)N[C@@H](CCCCN)C(=O)N[C@@H](CCCCN)C(=O)N[C@@H](CCC(N)=O)C(=O)N[C@@H](CCCNC(=N)N)C(=O)N[C@@H](CCC(N)=O)C(=O)N[C@@H](CCC(N)=O)C(=O)N[C@@H](C)C(=O)N[C@@H](CCC(=O)O)C(=O)N[C@H](C(=O)N[C@@H](CC(N)=O)C(=O)NC(C)(C)C(=O)N[C@@H](CCC(N)=O)C(=O)N[C@H](C(=O)N[C@@H](CC(C)C)C(=O)N[C@@H](C)C(=O)N[C@@H](CCC(N)=O)C(=O)N[C@H](C(N)=O)C(C)C)[C@@H](C)CC)[C@@H](C)O)[C@@H](C)CC)[C@@H](C)CC)C(C)C)C(C)C
B2: SEQ ID NO: 73 (peptide)
peptide: IVLSLDVPIKLK([AEEA-AEEA-γGlu-C18 diacid])QILLEQERQKKQRQKAETN[Aib]QILAQV-NH2
modifications: N-terminus assumed
SMILES: CC[C@H](C)[C@H](N)C(=O)N[C@H](C(=O)N[C@@H](CC(C)C)C(=O)N[C@@H](CO)C(=O)N[C@@H](CC(C)C)C(=O)N[C@@H](CC(=O)O)C(=O)N[C@H](C(=O)N1CCC[C@H]1C(=O)N[C@H](C(=O)N[C@@H](CCCCN)C(=O)N[C@@H](CC(C)C)C(=O)N[C@@H](CCCCNC(=O)COCCOCCNC(=O)COCCOCCNC(=O)CC[C@H](NC(=O)CCCCCCCCCCCCCCCCC(=O)O)C(=O)O)C(=O)N[C@@H](CCC(N)=O)C(=O)N[C@H](C(=O)N[C@@H](CC(C)C)C(=O)N[C@@H](CC(C)C)C(=O)N[C@@H](CCC(=O)O)C(=O)N[C@@H](CCC(N)=O)C(=O)N[C@@H](CCC(=O)O)C(=O)N[C@@H](CCCNC(=N)N)C(=O)N[C@@H](CCC(N)=O)C(=O)N[C@@H](CCCCN)C(=O)N[C@@H](CCCCN)C(=O)N[C@@H](CCC(N)=O)C(=O)N[C@@H](CCCNC(=N)N)C(=O)N[C@@H](CCC(N)=O)C(=O)N[C@@H](CCCCN)C(=O)N[C@@H](C)C(=O)N[C@@H](CCC(=O)O)C(=O)N[C@H](C(=O)N[C@@H](CC(N)=O)C(=O)NC(C)(C)C(=O)N[C@@H](CCC(N)=O)C(=O)N[C@H](C(=O)N[C@@H](CC(C)C)C(=O)N[C@@H](C)C(=O)N[C@@H](CCC(N)=O)C(=O)N[C@H](C(N)=O)C(C)C)[C@@H](C)CC)[C@@H](C)O)[C@@H](C)CC)[C@@H](C)CC)C(C)C)C(C)C
B3: SEQ ID NO: 74 (peptide)
peptide: IVLSLDVPIKLK([AEEA-AEEA-γGlu-C18 diacid])QILLEQERQKKQREQAETN[Aib]QILERV-NH2
modifications: N-terminus assumed
SMILES: CC[C@H](C)[C@H](N)C(=O)N[C@H](C(=O)N[C@@H](CC(C)C)C(=O)N[C@@H](CO)C(=O)N[C@@H](CC(C)C)C(=O)N[C@@H](CC(=O)O)C(=O)N[C@H](C(=O)N1CCC[C@H]1C(=O)N[C@H](C(=O)N[C@@H](CCCCN)C(=O)N[C@@H](CC(C)C)C(=O)N[C@@H](CCCCNC(=O)COCCOCCNC(=O)COCCOCCNC(=O)CC[C@H](NC(=O)CCCCCCCCCCCCCCCCC(=O)O)C(=O)O)C(=O)N[C@@H](CCC(N)=O)C(=O)N[C@H](C(=O)N[C@@H](CC(C)C)C(=O)N[C@@H](CC(C)C)C(=O)N[C@@H](CCC(=O)O)C(=O)N[C@@H](CCC(N)=O)C(=O)N[C@@H](CCC(=O)O)C(=O)N[C@@H](CCCNC(=N)N)C(=O)N[C@@H](CCC(N)=O)C(=O)N[C@@H](CCCCN)C(=O)N[C@@H](CCCCN)C(=O)N[C@@H](CCC(N)=O)C(=O)N[C@@H](CCCNC(=N)N)C(=O)N[C@@H](CCC(=O)O)C(=O)N[C@@H](CCC(N)=O)C(=O)N[C@@H](C)C(=O)N[C@@H](CCC(=O)O)C(=O)N[C@H](C(=O)N[C@@H](CC(N)=O)C(=O)NC(C)(C)C(=O)N[C@@H](CCC(N)=O)C(=O)N[C@H](C(=O)N[C@@H](CC(C)C)C(=O)N[C@@H](CCC(=O)O)C(=O)N[C@@H](CCCNC(=N)N)C(=O)N[C@H](C(N)=O)C(C)C)[C@@H](C)CC)[C@@H](C)O)[C@@H](C)CC)[C@@H](C)CC)C(C)C)C(C)C
B4: SEQ ID NO: 75 (peptide)
peptide: IVLSLDVPIKLK([AEEA-AEEA-γGlu-C18 diacid])QILLKQERQKKQRQQAETN[Aib]QILAQV-NH2
modifications: N-terminus assumed
SMILES: CC[C@H](C)[C@H](N)C(=O)N[C@H](C(=O)N[C@@H](CC(C)C)C(=O)N[C@@H](CO)C(=O)N[C@@H](CC(C)C)C(=O)N[C@@H](CC(=O)O)C(=O)N[C@H](C(=O)N1CCC[C@H]1C(=O)N[C@H](C(=O)N[C@@H](CCCCN)C(=O)N[C@@H](CC(C)C)C(=O)N[C@@H](CCCCNC(=O)COCCOCCNC(=O)COCCOCCNC(=O)CC[C@H](NC(=O)CCCCCCCCCCCCCCCCC(=O)O)C(=O)O)C(=O)N[C@@H](CCC(N)=O)C(=O)N[C@H](C(=O)N[C@@H](CC(C)C)C(=O)N[C@@H](CC(C)C)C(=O)N[C@@H](CCCCN)C(=O)N[C@@H](CCC(N)=O)C(=O)N[C@@H](CCC(=O)O)C(=O)N[C@@H](CCCNC(=N)N)C(=O)N[C@@H](CCC(N)=O)C(=O)N[C@@H](CCCCN)C(=O)N[C@@H](CCCCN)C(=O)N[C@@H](CCC(N)=O)C(=O)N[C@@H](CCCNC(=N)N)C(=O)N[C@@H](CCC(N)=O)C(=O)N[C@@H](CCC(N)=O)C(=O)N[C@@H](C)C(=O)N[C@@H](CCC(=O)O)C(=O)N[C@H](C(=O)N[C@@H](CC(N)=O)C(=O)NC(C)(C)C(=O)N[C@@H](CCC(N)=O)C(=O)N[C@H](C(=O)N[C@@H](CC(C)C)C(=O)N[C@@H](C)C(=O)N[C@@H](CCC(N)=O)C(=O)N[C@H](C(N)=O)C(C)C)[C@@H](C)CC)[C@@H](C)O)[C@@H](C)CC)[C@@H](C)CC)C(C)C)C(C)C
B5: SEQ ID NO: 76 (peptide)
peptide: IVLSLDVPIGLK([AEEA-AEEA-γGlu-C18 diacid])QILLEQERQKKQRQQAETN[Aib]QILAQV-NH2
modifications: N-terminus assumed
SMILES: CC[C@H](C)[C@H](N)C(=O)N[C@H](C(=O)N[C@@H](CC(C)C)C(=O)N[C@@H](CO)C(=O)N[C@@H](CC(C)C)C(=O)N[C@@H](CC(=O)O)C(=O)N[C@H](C(=O)N1CCC[C@H]1C(=O)N[C@H](C(=O)NCC(=O)N[C@@H](CC(C)C)C(=O)N[C@@H](CCCCNC(=O)COCCOCCNC(=O)COCCOCCNC(=O)CC[C@H](NC(=O)CCCCCCCCCCCCCCCCC(=O)O)C(=O)O)C(=O)N[C@@H](CCC(N)=O)C(=O)N[C@H](C(=O)N[C@@H](CC(C)C)C(=O)N[C@@H](CC(C)C)C(=O)N[C@@H](CCC(=O)O)C(=O)N[C@@H](CCC(N)=O)C(=O)N[C@@H](CCC(=O)O)C(=O)N[C@@H](CCCNC(=N)N)C(=O)N[C@@H](CCC(N)=O)C(=O)N[C@@H](CCCCN)C(=O)N[C@@H](CCCCN)C(=O)N[C@@H](CCC(N)=O)C(=O)N[C@@H](CCCNC(=N)N)C(=O)N[C@@H](CCC(N)=O)C(=O)N[C@@H](CCC(N)=O)C(=O)N[C@@H](C)C(=O)N[C@@H](CCC(=O)O)C(=O)N[C@H](C(=O)N[C@@H](CC(N)=O)C(=O)NC(C)(C)C(=O)N[C@@H](CCC(N)=O)C(=O)N[C@H](C(=O)N[C@@H](CC(C)C)C(=O)N[C@@H](C)C(=O)N[C@@H](CCC(N)=O)C(=O)N[C@H](C(N)=O)C(C)C)[C@@H](C)CC)[C@@H](C)O)[C@@H](C)CC)[C@@H](C)CC)C(C)C)C(C)C
B6: SEQ ID NO: 77 (peptide)
peptide: IVLSLDVPIKLK([AEEA-AEEA-γGlu-C18 diacid])QILLKQERQKKQRQKAETNKQILAQV-NH2
modifications: N-terminus assumed
SMILES: CC[C@H](C)[C@H](N)C(=O)N[C@H](C(=O)N[C@@H](CC(C)C)C(=O)N[C@@H](CO)C(=O)N[C@@H](CC(C)C)C(=O)N[C@@H](CC(=O)O)C(=O)N[C@H](C(=O)N1CCC[C@H]1C(=O)N[C@H](C(=O)N[C@@H](CCCCN)C(=O)N[C@@H](CC(C)C)C(=O)N[C@@H](CCCCNC(=O)COCCOCCNC(=O)COCCOCCNC(=O)CC[C@H](NC(=O)CCCCCCCCCCCCCCCCC(=O)O)C(=O)O)C(=O)N[C@@H](CCC(N)=O)C(=O)N[C@H](C(=O)N[C@@H](CC(C)C)C(=O)N[C@@H](CC(C)C)C(=O)N[C@@H](CCCCN)C(=O)N[C@@H](CCC(N)=O)C(=O)N[C@@H](CCC(=O)O)C(=O)N[C@@H](CCCNC(=N)N)C(=O)N[C@@H](CCC(N)=O)C(=O)N[C@@H](CCCCN)C(=O)N[C@@H](CCCCN)C(=O)N[C@@H](CCC(N)=O)C(=O)N[C@@H](CCCNC(=N)N)C(=O)N[C@@H](CCC(N)=O)C(=O)N[C@@H](CCCCN)C(=O)N[C@@H](C)C(=O)N[C@@H](CCC(=O)O)C(=O)N[C@H](C(=O)N[C@@H](CC(N)=O)C(=O)N[C@@H](CCCCN)C(=O)N[C@@H](CCC(N)=O)C(=O)N[C@H](C(=O)N[C@@H](CC(C)C)C(=O)N[C@@H](C)C(=O)N[C@@H](CCC(N)=O)C(=O)N[C@H](C(N)=O)C(C)C)[C@@H](C)CC)[C@@H](C)O)[C@@H](C)CC)[C@@H](C)CC)C(C)C)C(C)C

These binders were tested against human corticotropin-releasing factor 2α (CRF2 α receptor) (human), Q13324 (assay: cell-based or functional assay).
Chain of human corticotropin-releasing factor 2α (CRF2 α receptor) (human), Q13324 (Q13324 20-411): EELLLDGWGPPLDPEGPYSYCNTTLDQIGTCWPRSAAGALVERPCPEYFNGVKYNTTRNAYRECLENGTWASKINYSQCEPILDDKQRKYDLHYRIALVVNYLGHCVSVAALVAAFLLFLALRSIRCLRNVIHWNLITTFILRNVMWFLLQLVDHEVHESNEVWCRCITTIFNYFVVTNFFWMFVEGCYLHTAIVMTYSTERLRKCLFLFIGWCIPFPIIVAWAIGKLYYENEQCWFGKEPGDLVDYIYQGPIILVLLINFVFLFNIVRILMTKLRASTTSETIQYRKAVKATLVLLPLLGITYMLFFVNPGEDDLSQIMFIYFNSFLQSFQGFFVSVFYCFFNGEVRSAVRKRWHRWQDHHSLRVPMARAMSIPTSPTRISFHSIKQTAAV

Binder	EC50 [nM], 0% HSA [nM]
B1	0.65
B2	2.6
B3	2.12
B4	0.48
B5	13.4
B6	0.33
